Measured values reported in article PMC9482650, “Quantitative fragmentomics allow affinity mapping of interactomes” (Nature Communications, 2022).

Experiments:
Test in all cases: holdup assay
Set-up in all cases: key: below the threshold = too weak to quantify, mostly under pKd 3.1 to 4
IL16_4, Q14005 = biological target: IL16_4, Q14005
PARD3B_1, Q8TEW8 = biological target: T1, PARD3B_1, Q8TEW8
T1 sequence (Q8TEW8 196-299, limits assumed, looked up): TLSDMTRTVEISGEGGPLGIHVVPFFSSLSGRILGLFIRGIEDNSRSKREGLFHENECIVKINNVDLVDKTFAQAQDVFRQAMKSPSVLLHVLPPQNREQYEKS

LDB3, O75112 = biological target: LDB3, O75112
FRMPD4, Q14CM0 = biological target: FRMPD4, Q14CM0
NOS1, P29475 = biological target: NOS1, P29475
Inadl_3, Q8NI35 = biological target: Inadl_3, Q8NI35
GRIP1_5, Q9Y3R0 = biological target: T2, GRIP1_5, Q9Y3R0
T2 sequence (Q9Y3R0 568-668, limits assumed, looked up): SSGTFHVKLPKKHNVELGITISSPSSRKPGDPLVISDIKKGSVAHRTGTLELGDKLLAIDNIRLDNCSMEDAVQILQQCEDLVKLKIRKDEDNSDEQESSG

FRMPD1, Q5SYB0 = biological target: T3, FRMPD1, Q5SYB0
T3 sequence (Q5SYB0 52-145, limits assumed, looked up): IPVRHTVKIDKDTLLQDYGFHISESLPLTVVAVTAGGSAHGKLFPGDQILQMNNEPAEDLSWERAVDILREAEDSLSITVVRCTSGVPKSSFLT

MAGI2_6, Q86UL8 = biological target: MAGI2_6, Q86UL8
PDLIM1, O00151 = biological target: PDLIM1, O00151
CARD11, Q9BXL7 = biological target: T4, CARD11, Q9BXL7
T4 sequence (Q9BXL7 662-765, limits assumed, looked up): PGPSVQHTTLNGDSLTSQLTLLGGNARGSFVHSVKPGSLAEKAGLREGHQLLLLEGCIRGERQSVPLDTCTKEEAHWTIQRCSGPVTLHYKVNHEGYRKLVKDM

MAGI2_3, Q86UL8 = biological target: MAGI2_3, Q86UL8
DLG3_1, Q92796 = biological target: T5, DLG3_1, Q92796
T5 sequence (Q92796 125-227, limits assumed, looked up): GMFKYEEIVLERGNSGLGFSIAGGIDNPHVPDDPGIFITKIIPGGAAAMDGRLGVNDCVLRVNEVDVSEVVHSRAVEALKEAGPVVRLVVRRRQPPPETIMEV

MPDZ_5, O75970 = biological target: T6, MPDZ_5, O75970
T6 sequence (O75970 695-796, limits assumed, looked up): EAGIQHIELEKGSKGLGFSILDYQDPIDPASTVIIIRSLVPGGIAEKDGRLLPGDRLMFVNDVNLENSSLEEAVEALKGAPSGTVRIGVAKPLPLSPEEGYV

PDZRN3_1, Q9UPQ7 = biological target: T7, PDZRN3_1, Q9UPQ7
T7 sequence (Q9UPQ7 244-349, limits assumed, looked up): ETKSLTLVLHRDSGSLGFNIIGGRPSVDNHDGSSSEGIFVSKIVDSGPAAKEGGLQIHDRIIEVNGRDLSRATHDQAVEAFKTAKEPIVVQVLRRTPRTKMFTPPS

LIN7A, O14910 = biological target: T8, LIN7A, O14910
T8 sequence (O14910 103-200, limits assumed, looked up): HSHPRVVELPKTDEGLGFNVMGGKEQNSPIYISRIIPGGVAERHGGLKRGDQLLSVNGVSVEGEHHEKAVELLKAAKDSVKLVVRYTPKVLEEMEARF

MPDZ_12, O75970 = biological target: T9, MPDZ_12, O75970
T9 sequence (O75970 1857-1958, limits assumed, looked up): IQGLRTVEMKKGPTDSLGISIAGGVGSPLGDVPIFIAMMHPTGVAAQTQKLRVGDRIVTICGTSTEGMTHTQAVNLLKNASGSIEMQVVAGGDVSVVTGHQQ

GRIP1_7, Q9Y3R0 = biological target: T10, GRIP1_7, Q9Y3R0
T10 sequence (Q9Y3R0 999-1096, limits assumed, looked up): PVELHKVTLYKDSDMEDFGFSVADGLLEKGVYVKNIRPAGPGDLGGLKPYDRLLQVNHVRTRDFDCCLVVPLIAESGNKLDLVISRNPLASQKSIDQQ

DLG4_1, P78352 = biological target: DLG4_1, P78352
GRID2IP_1, A4D2P6 = biological target: GRID2IP_1, A4D2P6
NHERF3_1, Q5T2W1 = biological target: T11, NHERF3_1, Q5T2W1
T11 sequence (Q5T2W1 4-100, limits assumed, looked up): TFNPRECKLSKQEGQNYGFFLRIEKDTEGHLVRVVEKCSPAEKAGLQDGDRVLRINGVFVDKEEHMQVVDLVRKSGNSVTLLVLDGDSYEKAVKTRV

PARD3_3, Q8TEW0 = biological target: PARD3_3, Q8TEW0
APBA2_1, Q99767 = biological target: T12, APBA2_1, Q99767
T12 sequence (Q99767 563-664, limits assumed, looked up): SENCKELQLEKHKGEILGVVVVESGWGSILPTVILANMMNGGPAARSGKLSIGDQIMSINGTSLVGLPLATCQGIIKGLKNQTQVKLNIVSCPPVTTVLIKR

APBA3_1, O96018 = biological target: T13, APBA3_1, O96018
T13 sequence (O96018 389-490, limits assumed, looked up): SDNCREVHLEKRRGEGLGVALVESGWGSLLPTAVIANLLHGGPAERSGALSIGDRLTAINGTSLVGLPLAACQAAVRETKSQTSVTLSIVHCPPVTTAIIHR

[1] = plain residues with an end cap or a label only (N-terminal biotin on a linker: ttds)
[2] = plain residues with an end cap or a label only (N-terminal biotin on a linker: ado-ado)

GRID2IP_1, A4D2P6, sequence (A4D2P6 1-87): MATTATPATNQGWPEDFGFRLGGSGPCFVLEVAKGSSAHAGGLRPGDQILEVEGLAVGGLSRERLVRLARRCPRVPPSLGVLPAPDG
NOS1, P29475, sequence (P29475 9-101): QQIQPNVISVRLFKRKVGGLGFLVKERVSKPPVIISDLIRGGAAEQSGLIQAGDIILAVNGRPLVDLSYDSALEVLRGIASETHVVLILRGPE
FRMPD4, Q14CM0, sequence (Q14CM0 67-160): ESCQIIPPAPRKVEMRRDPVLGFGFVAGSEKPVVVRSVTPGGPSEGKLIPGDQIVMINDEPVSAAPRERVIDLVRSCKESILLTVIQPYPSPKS
MAGI2_3, Q86UL8, sequence (Q86UL8 600-682): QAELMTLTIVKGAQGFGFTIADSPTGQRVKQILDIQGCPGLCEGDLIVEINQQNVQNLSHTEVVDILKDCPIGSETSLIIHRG
LDB3, O75112, sequence (O75112 1-94): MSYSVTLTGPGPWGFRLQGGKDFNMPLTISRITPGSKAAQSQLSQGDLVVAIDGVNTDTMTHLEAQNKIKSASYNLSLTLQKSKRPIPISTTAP
PARD3_3, Q8TEW0, sequence (Q8TEW0 582-685): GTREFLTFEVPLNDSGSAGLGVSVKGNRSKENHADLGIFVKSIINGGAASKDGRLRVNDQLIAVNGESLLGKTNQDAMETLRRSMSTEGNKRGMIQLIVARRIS
DLG4_1, P78352, sequence (P78352 62-152): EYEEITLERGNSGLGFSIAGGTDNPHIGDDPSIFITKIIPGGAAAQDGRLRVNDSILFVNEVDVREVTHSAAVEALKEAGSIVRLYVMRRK
IL16_4, Q14005, sequence (Q14005 1229-1329): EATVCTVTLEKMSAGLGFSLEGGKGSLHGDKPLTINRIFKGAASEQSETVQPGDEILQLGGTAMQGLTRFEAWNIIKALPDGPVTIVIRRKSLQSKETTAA
MAGI2_6, Q86UL8, sequence (Q86UL8 1141-1229): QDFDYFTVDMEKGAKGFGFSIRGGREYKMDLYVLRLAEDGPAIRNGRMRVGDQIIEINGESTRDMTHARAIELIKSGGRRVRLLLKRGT
PDLIM1, O00151, sequence (O00151 1-87): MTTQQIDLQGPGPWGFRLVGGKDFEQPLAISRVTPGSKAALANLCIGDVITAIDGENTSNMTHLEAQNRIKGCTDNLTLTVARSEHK
Inadl_3, Q8NI35, sequence (Q8NI35 359-469): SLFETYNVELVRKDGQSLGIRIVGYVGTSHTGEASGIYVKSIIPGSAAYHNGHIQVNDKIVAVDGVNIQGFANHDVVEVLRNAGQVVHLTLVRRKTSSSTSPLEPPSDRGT

With NYWPGKETQL [SLCO1C1, Q9NYB5] the pKd (IL16_4, Q14005; [1]) was “below the threshold”, the pKd (PARD3B_1, Q8TEW8; [1]) was 3.7 and the pKd (LDB3, O75112; [1]) was “below the threshold”. The pKd (FRMPD4, Q14CM0; [1]) was 4.35, the pKd (NOS1, P29475; [1]) was 4.41 and the pKd (Inadl_3, Q8NI35; [1]) was “below the threshold”. The pKd (GRIP1_5, Q9Y3R0; [1]) was “below the threshold”, the pKd (FRMPD1, Q5SYB0; [1]) was “below the threshold” and the pKd (MAGI2_6, Q86UL8; [1]) was 4.42. For the same binder, the pKd (PDLIM1, O00151; [1]) was 3.73, the pKd (CARD11, Q9BXL7; [1]) was “below the threshold” and the pKd (MAGI2_3, Q86UL8; [1]) was “below the threshold”. The pKd (DLG3_1, Q92796; [1]) was 3.9, the pKd (MPDZ_5, O75970; [1]) was “below the threshold” and the pKd (PDZRN3_1, Q9UPQ7; [1]) was 5.71. The pKd (LIN7A, O14910; [1]) was 4.14, the pKd (MPDZ_12, O75970; [1]) was “below the threshold” and the pKd (GRIP1_7, Q9Y3R0; [1]) was “below the threshold”. The pKd (DLG4_1, P78352; [1]) was 4.29, the pKd (GRID2IP_1, A4D2P6; [1]) was “below the threshold” and the pKd (NHERF3_1, Q5T2W1; [1]) was 5.4. For the same binder, the pKd (PARD3_3, Q8TEW0; [1]) was “below the threshold”, the pKd (APBA2_1, Q99767; [1]) was “below the threshold” and the pKd (APBA3_1, O96018; [1]) was “below the threshold”.

EDLTKNHDEL [RCN1, Q15293] was tested, and the pKd (IL16_4, Q14005; [2]) was “below the threshold”, the pKd (PARD3B_1, Q8TEW8; [2]) was “below the threshold” and the pKd (LDB3, O75112; [2]) was 3.54. For the same binder, the pKd (FRMPD4, Q14CM0; [2]) was 4.09, the pKd (NOS1, P29475; [2]) was 3.78 and the pKd (Inadl_3, Q8NI35; [2]) was “below the threshold”. For the same binder, the pKd (GRIP1_5, Q9Y3R0; [2]) was 3.52, the pKd (FRMPD1, Q5SYB0; [2]) was “below the threshold” and the pKd (MAGI2_6, Q86UL8; [2]) was 3.54. The pKd (PDLIM1, O00151; [2]) was 3.52, the pKd (CARD11, Q9BXL7; [2]) was “below the threshold” and the pKd (MAGI2_3, Q86UL8; [2]) was “below the threshold”. For the same binder, the pKd (DLG3_1, Q92796; [2]) was “below the threshold”, the pKd (MPDZ_5, O75970; [2]) was “below the threshold” and the pKd (PDZRN3_1, Q9UPQ7; [2]) was 3.65. For the same binder, the pKd (LIN7A, O14910; [2]) was “below the threshold”, the pKd (MPDZ_12, O75970; [2]) was “below the threshold” and the pKd (GRIP1_7, Q9Y3R0; [2]) was “below the threshold”. For the same binder, the pKd (DLG4_1, P78352; [2]) was 3.57, the pKd (GRID2IP_1, A4D2P6; [2]) was “below the threshold” and the pKd (NHERF3_1, Q5T2W1; [2]) was 3.75. The pKd (PARD3_3, Q8TEW0; [2]) was “below the threshold”, the pKd (APBA2_1, Q99767; [2]) was 3.49 and the pKd (APBA3_1, O96018; [2]) was “below the threshold”.

LDSQIQETSI [MAP4, P27816] was tested, and the pKd (IL16_4, Q14005; [1]) was “below the threshold”, the pKd (PARD3B_1, Q8TEW8; [1]) was “below the threshold” and the pKd (LDB3, O75112; [1]) was “below the threshold”. The pKd (FRMPD4, Q14CM0; [1]) was “below the threshold”, the pKd (NOS1, P29475; [1]) was 3.55 and the pKd (Inadl_3, Q8NI35; [1]) was “below the threshold”. The pKd (GRIP1_5, Q9Y3R0; [1]) was “below the threshold”, the pKd (FRMPD1, Q5SYB0; [1]) was “below the threshold” and the pKd (MAGI2_6, Q86UL8; [1]) was 4.05. For the same binder, the pKd (PDLIM1, O00151; [1]) was “below the threshold”, the pKd (CARD11, Q9BXL7; [1]) was “below the threshold” and the pKd (MAGI2_3, Q86UL8; [1]) was “below the threshold”. For the same binder, the pKd (DLG3_1, Q92796; [1]) was “below the threshold”, the pKd (MPDZ_5, O75970; [1]) was “below the threshold” and the pKd (PDZRN3_1, Q9UPQ7; [1]) was 4.55. For the same binder, the pKd (LIN7A, O14910; [1]) was “below the threshold”, the pKd (MPDZ_12, O75970; [1]) was “below the threshold” and the pKd (GRIP1_7, Q9Y3R0; [1]) was “below the threshold”. The pKd (DLG4_1, P78352; [1]) was 3.5, the pKd (GRID2IP_1, A4D2P6; [1]) was “below the threshold” and the pKd (NHERF3_1, Q5T2W1; [1]) was 4.52. For the same binder, the pKd (PARD3_3, Q8TEW0; [1]) was 3.86, the pKd (APBA2_1, Q99767; [1]) was “below the threshold” and the pKd (APBA3_1, O96018; [1]) was “below the threshold”.
